Substitutions are numbered along the chain they refer to. Names may count otherwise.

Sequences and labels used below:
T1: recombinant human activated Factor VII (FVIIa) (human, UniProt P08709 61-212; P08709 213-466, ten glutamate residues of the Gla domain may be gamma-carboxylated)
T1 construct: chains tethered by a disulfide bond; also called Factor VIIa; rFVIIa
T1 sequence 1: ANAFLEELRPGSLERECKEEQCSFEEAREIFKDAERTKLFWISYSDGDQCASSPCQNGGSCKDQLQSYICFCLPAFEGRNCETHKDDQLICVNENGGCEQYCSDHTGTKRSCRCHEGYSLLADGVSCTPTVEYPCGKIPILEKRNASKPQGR
T1 sequence 2: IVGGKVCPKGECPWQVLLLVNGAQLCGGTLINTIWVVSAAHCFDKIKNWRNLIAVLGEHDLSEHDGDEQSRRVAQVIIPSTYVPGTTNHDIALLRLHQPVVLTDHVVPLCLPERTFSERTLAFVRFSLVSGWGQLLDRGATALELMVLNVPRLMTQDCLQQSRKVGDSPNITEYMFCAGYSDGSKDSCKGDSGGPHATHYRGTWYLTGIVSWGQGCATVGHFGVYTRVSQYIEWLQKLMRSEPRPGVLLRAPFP

B1: VH SEQ ID NO 602 / VL SEQ ID NO 326 (antibody, IgG4, V domains shown)
VH: QVQLQESGPGLVKPSQTLSLTCTVSGGSISSDSAWSWIRQPPGKGLEWIGYIQYSGSTNYNPSLKSRVTISVDTSKNQFSLKLSSVTAADTAVYYCARSVNYYGNSFAVGYWGQGTLVTVSS
VL: EIVLTQSPATLSLSPGERATLSCRASQGISDYLHWYQQKPGEAPRLLIKYTSQPATGIPARFSGSGSGTDFTLTISSLEPEDFGVYYCQNGHSFPLTFGAGTKLELK
notes: humanized 11F2; IgG4 S228P/kappa
B2: VH SEQ ID NO 610 / VL SEQ ID NO 326 (antibody, IgG4, V domains shown)
VH: B1 VH with S30T
VL: B1 VL
notes: as for B1
B3: VH SEQ ID NO 602 / VL SEQ ID NO 462 (antibody, IgG4, V domains shown)
VH: B1 VH
VL: B1 VL with I29V, E42Q, T51A, G84A, L106I
notes: as for B1
B4: VH SEQ ID NO 610 / VL SEQ ID NO 334 (antibody, IgG4, V domains shown)
VH: B1 VH with S30T
VL: B1 VL with E42Q, T51A, G84A, A100Q, L106I
notes: as for B1
B5: VH SEQ ID NO 602 / VL SEQ ID NO 470 (antibody, IgG4, V domains shown)
VH: B1 VH
VL: B1 VL with I29V, E42Q, T51A, G84A, A100Q, L106I
notes: as for B1
B6: VH SEQ ID NO 610 / VL SEQ ID NO 414 (antibody, IgG4, V domains shown)
VH: B1 VH with S30T
VL: B1 VL with I29V, H34A, E42Q, T51A, G84A, A100Q, L106I
notes: as for B1
B7: VH SEQ ID NO 602 / VL SEQ ID NO 358 (antibody, IgG4, V domains shown)
VH: B1 VH
VL: B1 VL with E42Q, G84A, A100Q, L106I
notes: as for B1
B8: VH SEQ ID NO 610 / VL SEQ ID NO 382 (antibody, IgG4, V domains shown)
VH: B1 VH with S30T
VL: B1 VL with I29L, T51A, G84A, A100Q, L106I
notes: as for B1
B9: VH SEQ ID NO 602 / VL SEQ ID NO 486 (antibody, IgG4, V domains shown)
VH: B1 VH
VL: B1 VL with I29V, E42Q, T51A, A100Q, L106I
notes: as for B1
B10: VH SEQ ID NO 602 / VL SEQ ID NO 310 (antibody, IgG4, V domains shown)
VH: B1 VH
VL: B1 VL with H34A, E42Q, T51A, G84A, A100Q, L106I
notes: as for B1
B11: VH SEQ ID NO 594 / VL SEQ ID NO 470 (antibody, IgG4, V domains shown)
VH: B1 VH with Q16D, T23A, G27Y, G45K, I70M, A89L, Y111P
VL: B1 VL with I29V, E42Q, T51A, G84A, A100Q, L106I
notes: as for B1
B12: VH SEQ ID NO 594 / VL SEQ ID NO 454 (antibody, IgG4, V domains shown)
VH: B1 VH with Q16D, T23A, G27Y, G45K, I70M, A89L, Y111P
VL: B1 VL with I29V, T51A, G84A, A100Q, L106I
notes: as for B1
B13: VH SEQ ID NO 602 / VL SEQ ID NO 502 (antibody, IgG4, V domains shown)
VH: B1 VH
VL: B1 VL with I29V, E42Q, G84A, A100Q, L106I
notes: as for B1
B14: VH SEQ ID NO 602 / VL SEQ ID NO 414 (antibody, IgG4, V domains shown)
VH: B1 VH
VL: B1 VL with I29V, H34A, E42Q, T51A, G84A, A100Q, L106I
notes: as for B1
B15: VH SEQ ID NO 610 / VL SEQ ID NO 318 (antibody, IgG4, V domains shown)
VH: B1 VH with S30T
VL: B1 VL with G84A, A100Q, L106I
notes: as for B1
B16: VH SEQ ID NO 602 / VL SEQ ID NO 342 (antibody, IgG4, V domains shown)
VH: B1 VH
VL: B1 VL with E42Q, T69R, G84A
notes: as for B1
B17: VH SEQ ID NO 602 / VL SEQ ID NO 406 (antibody, IgG4, V domains shown)
VH: B1 VH
VL: B1 VL with I29V, H34A, E42Q, T51A, G84A, L106I
notes: as for B1
B18: VH SEQ ID NO 610 / VL SEQ ID NO 342 (antibody, IgG4, V domains shown)
VH: B1 VH with S30T
VL: B1 VL with E42Q, T69R, G84A
notes: as for B1
B19: VH SEQ ID NO 602 / VL SEQ ID NO 438 (antibody, IgG4, V domains shown)
VH: B1 VH
VL: B1 VL with I29V, H34A, E42Q, T51A, F83V, G84A, A100Q, L106I
notes: as for B1
B20: VH SEQ ID NO 594 / VL SEQ ID NO 502 (antibody, IgG4, V domains shown)
VH: B1 VH with Q16D, T23A, G27Y, G45K, I70M, A89L, Y111P
VL: B1 VL with I29V, E42Q, G84A, A100Q, L106I
notes: as for B1
B21: VH SEQ ID NO 602 / VL SEQ ID NO 430 (antibody, IgG4, V domains shown)
VH: B1 VH
VL: B1 VL with I29V, H34A, E42Q, T51A, A100Q, L106I
notes: as for B1

The assay concerns the target T1, recombinant human activated Factor VII …. The assay is described as follows: BLI (Fortebio). (In BLI a coated tip is dipped into the sample, and binding shifts an interference pattern.)
In general, Kd refers to the concentration at which binding is half-saturated. Consider B1, for which the Kd was determined as 8.8 nM.

Consider B2, for which the Kd amounted to 11 nM. As for B3, the Kd came out at 15 nM. For B4, the Kd is 13 nM. For B5, the Kd turned out to be 13 nM.

For the molecule B6, the Kd turned out to be 780 nM. With B7, the Kd was determined as 9.2 nM.

As for B8, the Kd was 17 nM. B9: the Kd was 15 nM. As to B10, the Kd came out at 48 nM. On to B11, for which the Kd was found to be 35 nM.

For the molecule B12, the Kd came to 32 nM. With B13, the Kd is 14 nM. On to B14, for which the Kd turned out to be 310 nM. The same measure for B15: 10 nM; for B16: 14 nM. For B17, the Kd was found to be 90 nM. With B18, the Kd was 16 nM. In the case of B19, the Kd came to 600 nM. In the case of B20, the Kd came out at 30 nM. For the molecule B21, the Kd stood at 590 nM.

For the origin of these results see patent publication US20220064329A1 (Novo Nordisk, published 2022).
